# Assay results: patent EP4640700A1 (Harbour Biomed (Shanghai) Co., Ltd, dated 2025)
# T1: human B7H4 (human, UniProt Q7Z7D3 25-282)
# T1 sequence (looked up): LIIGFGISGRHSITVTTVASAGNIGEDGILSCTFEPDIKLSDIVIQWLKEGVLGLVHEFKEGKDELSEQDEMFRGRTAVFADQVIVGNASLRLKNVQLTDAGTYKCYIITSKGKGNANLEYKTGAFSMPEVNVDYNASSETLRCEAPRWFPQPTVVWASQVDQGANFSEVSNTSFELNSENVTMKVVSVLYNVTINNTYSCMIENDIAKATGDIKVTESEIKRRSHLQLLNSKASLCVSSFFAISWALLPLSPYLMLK
# T2: BCMA (UniProt Q02223 1-184)
# T2 sequence (looked up): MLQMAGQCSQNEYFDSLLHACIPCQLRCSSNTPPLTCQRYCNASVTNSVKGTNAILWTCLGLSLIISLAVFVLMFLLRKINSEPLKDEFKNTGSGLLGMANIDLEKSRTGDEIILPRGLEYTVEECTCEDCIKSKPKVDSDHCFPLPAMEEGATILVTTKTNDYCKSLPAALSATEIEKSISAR
# Legend:
# human serum albumin = biological target: T3, human serum albumin (human, UniProt P02768 25-609); test: binding to human serum albumin, Fig. 19; method not described
# T3 construct: Bought reagent; also called HSA
# human B7H4 [1] = biological target: T1, human B7H4; test: cell-based or functional assay
# human B7H4 [2] = biological target: T1, human B7H4; test: flow cytometry (FACS) on SK-BR-3 cells with high B7H4 expression
# PSMA = PSMA (UniProt Q04609 1-750); test: cell-based or functional assay
# human ROR1 = human ROR1 (human, UniProt Q01973 30-937); test: cell-based or functional assay
# BCMA = biological target: T2, BCMA; test: cell-based or functional assay
# T3 sequence (P02768 25-609 limits assumed): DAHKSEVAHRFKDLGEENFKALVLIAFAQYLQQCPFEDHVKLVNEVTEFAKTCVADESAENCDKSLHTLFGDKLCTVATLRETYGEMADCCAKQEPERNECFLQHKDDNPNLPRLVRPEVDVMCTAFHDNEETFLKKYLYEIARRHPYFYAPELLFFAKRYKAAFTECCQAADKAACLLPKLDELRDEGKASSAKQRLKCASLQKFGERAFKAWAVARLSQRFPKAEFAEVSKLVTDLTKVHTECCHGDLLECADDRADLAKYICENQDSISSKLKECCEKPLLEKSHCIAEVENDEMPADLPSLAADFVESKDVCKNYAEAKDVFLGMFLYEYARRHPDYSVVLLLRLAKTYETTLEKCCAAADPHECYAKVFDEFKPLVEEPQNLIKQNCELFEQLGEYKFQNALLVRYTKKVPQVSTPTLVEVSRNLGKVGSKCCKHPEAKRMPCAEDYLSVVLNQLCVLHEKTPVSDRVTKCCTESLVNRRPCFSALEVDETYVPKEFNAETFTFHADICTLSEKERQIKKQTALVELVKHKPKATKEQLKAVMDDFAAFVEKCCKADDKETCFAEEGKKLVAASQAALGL
# Chain of human ROR1 (Q01973 30-937): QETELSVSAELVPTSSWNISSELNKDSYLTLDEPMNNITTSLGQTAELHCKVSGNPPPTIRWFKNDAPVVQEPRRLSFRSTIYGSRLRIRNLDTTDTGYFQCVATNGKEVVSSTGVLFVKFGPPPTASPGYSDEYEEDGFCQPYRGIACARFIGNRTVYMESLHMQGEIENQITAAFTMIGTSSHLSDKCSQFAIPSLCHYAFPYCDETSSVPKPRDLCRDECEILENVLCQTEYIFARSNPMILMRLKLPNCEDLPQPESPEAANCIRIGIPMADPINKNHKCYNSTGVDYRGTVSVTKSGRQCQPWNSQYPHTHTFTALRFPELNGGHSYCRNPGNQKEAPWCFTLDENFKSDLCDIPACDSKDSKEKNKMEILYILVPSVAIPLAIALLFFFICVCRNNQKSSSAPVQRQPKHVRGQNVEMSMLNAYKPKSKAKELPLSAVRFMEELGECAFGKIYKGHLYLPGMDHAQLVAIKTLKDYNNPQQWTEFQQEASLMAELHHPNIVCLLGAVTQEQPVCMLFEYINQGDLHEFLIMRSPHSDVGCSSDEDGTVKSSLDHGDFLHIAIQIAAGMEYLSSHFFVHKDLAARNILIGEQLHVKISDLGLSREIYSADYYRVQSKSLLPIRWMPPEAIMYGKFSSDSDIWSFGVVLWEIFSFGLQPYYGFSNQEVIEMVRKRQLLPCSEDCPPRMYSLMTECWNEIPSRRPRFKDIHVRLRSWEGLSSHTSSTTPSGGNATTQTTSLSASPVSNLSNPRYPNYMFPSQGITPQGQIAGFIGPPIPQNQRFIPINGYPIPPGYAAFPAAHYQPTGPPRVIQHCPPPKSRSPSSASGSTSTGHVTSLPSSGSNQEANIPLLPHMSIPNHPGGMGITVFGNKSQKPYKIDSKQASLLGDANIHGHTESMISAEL
# Chain of PSMA (Q04609 whole entry): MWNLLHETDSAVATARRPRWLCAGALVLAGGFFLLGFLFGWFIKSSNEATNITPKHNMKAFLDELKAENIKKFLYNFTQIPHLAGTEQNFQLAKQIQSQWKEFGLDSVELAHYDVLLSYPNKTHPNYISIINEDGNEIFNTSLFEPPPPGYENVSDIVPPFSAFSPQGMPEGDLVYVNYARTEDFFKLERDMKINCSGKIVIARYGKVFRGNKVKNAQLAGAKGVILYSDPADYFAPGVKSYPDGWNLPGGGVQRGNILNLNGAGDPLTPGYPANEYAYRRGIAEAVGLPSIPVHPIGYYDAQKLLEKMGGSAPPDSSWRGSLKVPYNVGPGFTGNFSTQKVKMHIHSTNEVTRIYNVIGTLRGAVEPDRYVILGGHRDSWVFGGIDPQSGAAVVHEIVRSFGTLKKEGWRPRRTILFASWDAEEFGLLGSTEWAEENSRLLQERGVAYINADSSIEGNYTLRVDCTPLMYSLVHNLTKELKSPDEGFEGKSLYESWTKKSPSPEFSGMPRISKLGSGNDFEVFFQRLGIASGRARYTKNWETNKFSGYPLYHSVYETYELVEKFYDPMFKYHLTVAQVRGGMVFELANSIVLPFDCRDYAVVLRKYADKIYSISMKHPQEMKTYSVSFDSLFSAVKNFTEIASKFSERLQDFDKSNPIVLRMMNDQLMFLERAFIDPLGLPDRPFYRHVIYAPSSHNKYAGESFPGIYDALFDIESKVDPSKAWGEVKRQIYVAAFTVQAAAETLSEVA
binder,measurement,setting,value
"PR000929 (VHH, Humanized single-domain antibody, no Fc; also called anti-HSA Alb23-his; single-domain antibody Alb23) VHH: EVQLLESGGGLVQPGGSLRLSCAASGFTFRSFGMSWVRQAPGKGPEWVSSISGSGSDTLYADSVKGRFTISRDNSKNTLYLQMNSLRPEDTAVYYCTIGGSLSRSSQGTLVTVSS",binding result,human serum albumin,binds
"PR000317 (bispecific antibody, Three-chain Fab-Fab without Fc; N-terminal Fab-A from PR000157 (anti-B7H4), C-terminal Fab-B from PR000260 (anti-CD3 SP34); also called Anti-B7H4xCD3 1D11-SP34 Fab-Fab; B7H4xCD3 ""κ/λ"" Fab-Fab antibody) chain 1: EVQLVQSGAEVKKPGASVKVSCKASGYTFTSYWIGWVRQAPGQGLEWIGDIYPGGGYTNYNEKFKGRVTITRDTSTSTAYLELSSLRSEDTAVYYCARLAGSSYRGAMDSWGQGTLVTVSSASTKGPSVFPLAPSSKSTSGGTAALGCLVKDYFPEPVTVSWNSGALTSGVHTFPAVLQSSGLYSLSSVVTVPSSSLGTQTYICNVNHKPSNTKVDKKVEPKSC chain 2: DIQMTQSPSSLSASVGDRVTITCKASQGFNKYVAWYQQKPGKAPKLLIYYTSTLQPGVPSRFSGSGSGRDYTLTISSLQPEDFATYYCLQYGDLLYAFGQGTKVEIKRTVAAPSVFIFPPSDEQLKSGTASVVCLLNNFYPREAKVQWKVDNALQSGNSQESVTEQDSKDSTYSLSSTLTLSKADYEKHKVYACEVTHQGLSSPVTKSFNRGECEVQLVESGGGLVQPKGSLKLSCAASGFTFNTYAMNWVRQAPGKGLEWVARIRSKYNNYATYYADSVKDRFTISRDDSQSILYLQMNNLKTEDTAMYYCVRHGNFGNSYVSWFAYWGQGTLVTVSAASTKGPSVFPLAPSSKSTSGGTAALGCLVKDYFPEPVTVSWNSGALTSGVHTFPAVLQSSGLYSLSSVVTVPSSSLGTQTYICNVNHKPSNTKVDKKVEPKSC light: QAVVTQESALTTSPGETVTLTCRSSTGAVTTSNYANWVQEKPDHLFTGLIGGTNKRAPGVPARFSGSLIGDKAALTITGAQTEDEAIYFCALWYSNLWVFGGGTKLTVLGQPKAAPSVTLFPPSSEELQANKATLVCLISDFYPGAVTVAWKADSSPVKAGVETTTPSKQSNNKYAASSYLSLTPEQWKSHRSYSCQVTHEGSTVEKTVAPTECS",Cell killing EC50,human B7H4 [1],1.8 pM
same,Maximum killing rate (%),human B7H4 [1],33.9%
same,EC50,human B7H4 [2],22000 pM
"PR001325 (bispecific antibody, no Fc; also called anti-B7H4xCD3 1D11C2-hzSP34_PR512 Fab-Fab-(G4S)2-Alb23; B7H4xCD3xALB trispecific antibody) chain 1: EVQLVQSGAEVKKPGASVKVSCKASGYTFTSYWIGWVRQAPGQGLEWIGDIYPGGGYTNYNEKFKGRVTITRDTSTSTAYLELSSLRSEDTAVYYCARLAGSSYRGAMDSWGQGTLVTVSSASTKGPSVFPLAPSSKSTSGGTAALGCLVKDYFPEPVTVSWNSGALTSGVHTFPAVLQSSGLYSLSSVVTVPSSSLGTQTYICNVNHKPSNTKVDKKVEPKSC chain 2: DIQMTQSPSSLSASVGDRVTITCKASQGFNKYVAWYQQKPGKAPKLLIYYTSTLQPGVPSRFSGSGSGRDYTLTISSLQPEDFATYYCLQYGDLLYAFGQGTKVEIKRTVAAPSVFIFPPSDEQLKSGTASVVCLLNNFYPREAKVQWKVDNALQSGNSQESVTEQDSKDSTYSLSSTLTLSKADYEKHKVYACEVTHQGLSSPVTKSFNRGECEVQLVESGGGLVQPGGSLKLSCAASGFTFNTYAMNWVRQASGKGLEWVGRIRSKYNNYATYYADSVKDRFTISRDDSKSTLYLQMNSLKTEDTAVYYCVRHGNFGNSYVSWFAYWGQGTLVTVSSASTKGPSVFPLAPSSKSTSGGTAALGCLVKDYFPEPVTVSWNSGALTSGVHTFPAVLQSSGLYSLSSVVTVPSSSLGTQTYICNVNHKPSNTKVDKKVEPKSCGGGGSGGGGSEVQLLESGGGLVQPGGSLRLSCAASGFTFRSFGMSWVRQAPGKGPEWVSSISGSGSDTLYADSVKGRFTISRDNSKNTLYLQMNSLRPEDTAVYYCTIGGSLSRSSQGTLVTVSS light: QAVVTQEPSLTVSPGGTVTLTCRSSTGAVTTSNYANWVQQKPGQAPRGLIGGTNKRAPWTPARFSGSLLGDKAALTLLGAQPEDEAEYFCALWYSNLWVFGGGTKLTVLGQPKAAPSVTLFPPSSEELQANKATLVCLISDFYPGAVTVAWKADSSPVKAGVETTTPSKQSNNKYAASSYLSLTPEQWKSHRSYSCQVTHEGSTVEKTVAPTECS",binding result,human serum albumin,binds
PR001197 (bispecific antibody) chain 1: QVQLVESGGGLVKPGESLRLSCAASGFTFSDYYMYWVRQAPGKGLEWVAIISDGGYYTYYSDIIKGRFTISRDNAKNSLYLQMNSLKAEDTAVYYCARGFPLLRHGAMDYWGQGTLVTVSSASTKGPSVFPLAPSSKSTSGGTAALGCLVKDYFPEPVTVSWNSGALTSGVHTFPAVLQSSGLYSLSSVVTVPSSSLGTQTYICNVNHKPSNTKVDKKVEPKSC chain 2: DIQMTQSPSSLSASVGDRVTITCKASQNVDTNVAWYQQKPGQAPKSLIYSASYRYSDVPSRFSGSASGTDFTLTISSVQSEDFATYYCQQYDSYPYTFGGGTKLEIKRTVAAPSVFIFPPSDEQLKSGTASVVCLLNNFYPREAKVQWKVDNALQSGNSQESVTEQDSKDSTYSLSSTLTLSKADYEKHKVYACEVTHQGLSSPVTKSFNRGECEVQLVESGGGLVQPGGSLKLSCAASGFTFNTYAMNWVRQASGKGLEWVGRIRSKYNNYATYYADSVKDRFTISRDDSKSTLYLQMNSLKTEDTAVYYCVRHGNFGNSYVSWFAYWGQGTLVTVSSASTKGPSVFPLAPSSKSTSGGTAALGCLVKDYFPEPVTVSWNSGALTSGVHTFPAVLQSSGLYSLSSVVTVPSSSLGTQTYICNVNHKPSNTKVDKKVEPKSC light: QAVVTQEPSLTVSPGGTVTLTCRSSTGAVTTSNYANWVQQKPGQAPRGLIGGTNKRAPWTPARFSGSLLGDKAALTLLGAQPEDEAEYFCALWYSNLWVFGGGTKLTVLGQPKAAPSVTLFPPSSEELQANKATLVCLISDFYPGAVTVAWKADSSPVKAGVETTTPSKQSNNKYAASSYLSLTPEQWKSHRSYSCQVTHEGSTVEKTVAPTECS,Cell killing EC50,PSMA,143 pM
same,Maximum killing rate (%),PSMA,52.4%
PR001200 (bispecific antibody) chain 1: EVQLVESGGGLVQPGRSLRLSCTASGSDINDYPITWVRQAPGQGLEWIGFINSGGSTWYASWVKGRFTISRDDSKSIAYLQMNSLKTEDTAVYYCARGYSTYYRDFNIWGQGTLVTVSSASTKGPSVFPLAPSSKSTSGGTAALGCLVKDYFPEPVTVSWNSGALTSGVHTFPAVLQSSGLYSLSSVVTVPSSSLGTQTYICNVNHKPSNTKVDKKVEPKSC chain 2: DIQMTQSPSSLSASVGDRVTINCQASQSIDSNLAWFQQKPGQPPKLLIYRASNLASGVPDRFSGSGSGTDFTLTISSLEAEDVATYYCLGGVGAVSYRTSFGGGTKVEIKRTVAAPSVFIFPPSDEQLKSGTASVVCLLNNFYPREAKVQWKVDNALQSGNSQESVTEQDSKDSTYSLSSTLTLSKADYEKHKVYACEVTHQGLSSPVTKSFNRGECEVQLVESGGGLVQPGGSLKLSCAASGFTFNTYAMNWVRQASGKGLEWVGRIRSKYNNYATYYADSVKDRFTISRDDSKSTLYLQMNSLKTEDTAVYYCVRHGNFGNSYVSWFAYWGQGTLVTVSSASTKGPSVFPLAPSSKSTSGGTAALGCLVKDYFPEPVTVSWNSGALTSGVHTFPAVLQSSGLYSLSSVVTVPSSSLGTQTYICNVNHKPSNTKVDKKVEPKSC light: QAVVTQEPSLTVSPGGTVTLTCRSSTGAVTTSNYANWVQQKPGQAPRGLIGGTNKRAPWTPARFSGSLLGDKAALTLLGAQPEDEAEYFCALWYSNLWVFGGGTKLTVLGQPKAAPSVTLFPPSSEELQANKATLVCLISDFYPGAVTVAWKADSSPVKAGVETTTPSKQSNNKYAASSYLSLTPEQWKSHRSYSCQVTHEGSTVEKTVAPTECS,Cell killing EC50,human ROR1,1160 pM
same,Maximum killing rate (%),human ROR1,54.8%
PR001198 (bispecific antibody) chain 1: QVQLVQSGAEVKKPGSSVKVSCKASGGTFSNYWMHWVRQAPGQGLEWMGATYRGHSDTYYNQKFKGRVTITADKSTSTAYMELSSLRSEDTAVYYCARGAIYDGYDVLDNWGQGTLVTVSSASTKGPSVFPLAPSSKSTSGGTAALGCLVKDYFPEPVTVSWNSGALTSGVHTFPAVLQSSGLYSLSSVVTVPSSSLGTQTYICNVNHKPSNTKVDKKVEPKSC chain 2: not shown light: QAVVTQEPSLTVSPGGTVTLTCRSSTGAVTTSNYANWVQQKPGQAPRGLIGGTNKRAPWTPARFSGSLLGDKAALTLLGAQPEDEAEYFCALWYSNLWVFGGGTKLTVLGQPKAAPSVTLFPPSSEELQANKATLVCLISDFYPGAVTVAWKADSSPVKAGVETTTPSKQSNNKYAASSYLSLTPEQWKSHRSYSCQVTHEGSTVEKTVAPTECS,Cell killing EC50,BCMA,17.8 pM
same,Maximum killing rate (%),BCMA,61.3%
